{"source": "paper PMC3955203", "biological_target": "Blinkin (UniProt Q8NG31)", "assay": "GST pull-down from mitotic lysate", "conditions": "sites Y207"}
{"substance": "Bub3 (from UniProt O43684) GST-Bub3 WT incubated with His-PKM2", "values": [{"measurement": "binding against the reference", "setting": "reference: GST-Bub3 WT without His-PKM2", "result": "stronger"}]}
{"substance": "Bub3 (from UniProt O43684) GST-Bub3 WT with His-PKM2 and PEP", "values": [{"measurement": "binding against the reference", "setting": "reference: GST-Bub3 WT with His-PKM2, no PEP", "result": "stronger"}, {"measurement": "binding against the reference", "setting": "reference: GST-Bub3 WT, PEP, no His-PKM2", "result": "stronger"}]}
